Drawing on article PMC9779650 (2022), this text covers Kd and koff for one molecule.

Assay [1] deals with T1, SARS-CoV-2 spike RBD-His (wildtype, WA1/2020) (SARS-CoV-2, UniProt P0DTC2 319-541). The assay can be described thus: BLI.
Assay [2] has as its target T1, SARS-CoV-2 spike RBD-His (wildtype, …). The assay can be described thus: BLI. The source holds these as a separate data set.

B1: P4A2 monoclonal antibody (antibody, V domains shown)
VH: QVQLQQSGAELVKPGASVKLSCKASGFTFTRYSIYWMKQRPGQGLEWIGEINPSTGDTNFNEKFKSKATLTVDKSSTTAYMQLSSLTSEDSAVYYCTRSTGYWGQGTLVTVSA
VL: DIVLTQSPASLAVSLGQRATISCRASESVEYHGTILMQWFQQKPGQPPRLLIYAASNVDSGVPARFSGSGSGTDLSLNIHPVEEDDIAMYFCQQSRKVPYTFGGGTKLEIK
By Kd is commonly meant the free concentration of one partner at which half of the binding sites on the other are occupied at equilibrium, for simple one-to-one binding. A lower Kd goes with a tighter complex. The koff is the rate constant with which the complex falls apart. A lower koff goes with a long-lived complex. In assay [1], B1 came in with an equilibrium dissociation constant (Kd) of less than 1 pM. In addition, the off-rate (koff) in assay [2] is less than 1e-07 s⁻¹.
